From US20240018268A1 (JUNO THERAPEUTICS, published 2024) come the findings set out here.

For assay [1], the target named is recombinant soluble extracellular domain (ECD) portion of the anti-CD19 (SJ25C1-derived) CAR (human). The assay is described as follows: ELISA on the recombinant soluble ECD portion; A-1 is the one named clone of the five.
For assay [2], the target named is T1, anti-CD19 (SJ25C1-derived) chimeric antigen receptor (CAR), expressed on T cells or Jurkat cells (human, UniProt P10747 153-179; P10747 180-220; P20963 52-163, limits assumed).
T1 construct: domain: transmembrane domain;domain: intracellular signaling domain;domain: signaling domain; Whole CAR on the surface of transduced human T cells, PBMCs or Jurkat cells; also called anti-CD19 (SJ25C1) CAR; SJ25C1-derived CAR
Kind of assay: flow cytometry, biotin-conjugated antibody and PE-streptavidin on CAR-transduced cells. As for the experimental part: Hybridoma fusion clones were generated and 12 candidate clones were further characterized by flow cytometry. Peripheral blood mononuclear cells were isolated from human subjects and cells were activated and transduced with a viral vector encoding the anti-CD19 CAR. For flow cytometry, about 1×10⁶ cells per 100 μL were incubated with 10 μL of biotin-conjugated anti-idiotype antibody followed by staining with a PE-conjugated streptavidin. As a positive control for surface expression of the CAR, cells were stained with an anti-EGFR antibody to verify expression of the EGFRt transduction marker, which was a surrogate of CAR expression. […] Cells were gated on CD3⁺ CD4⁺/CD8⁺ PBMCs and fluorescence signal was determined. […] To confirm the antibodies were specific for the scFv derived from the anti-CD19 antibody derived from FMC63, similar experiments were performed on cells transduced with an anti-CD19 CAR derived from SJ25C1 as described in Example 1. […] Anti-idiotype antibody clones B-1 (anti-ID B-1) and B-2 (anti-ID B-2) were selected for further characterization.
Background: In flow cytometry, cells or beads pass a laser one at a time.

For assay [3], the target named is T2, anti-CD19 (FMC63-derived) chimeric antigen receptor (CAR), expressed on T cells.
T2 construct: Whole CAR on the surface of transduced human T cells/PBMCs, co-expressed with EGFRt from the same construct (T2A); treated here as one molecule; also called anti-CD19 (FMC63) CAR; FMC63-derived CAR
The assay is described as follows: flow cytometry, CAR T cells spiked into human PBMCs. As for the experimental part:
The anti-CD19 CAR expressing cells were spiked in to a sample of cells containing healthy human peripheral blood mononuclear cells (PBMCs). The resulting cell compositions were incubated with different concentrations of the anti-CD19 FMC63 scFv-specific anti-ID B1 or anti-ID B2 antibodies. As a control, samples of each condition were also incubated with a concentration of anti-EGFR antibody, capable of detecting the EGFRt surrogate marker on the transduced cells. Control samples included those only containing the PBMCs without the addition of added CAR− expressing T cells. Geometric mean fluorescence intensity (MFI) was quantified in positively labeled cells to assess antibody staining.

Assay [4] deals with T3, human Fc-fusion protein containing the FMC63-derived scFv portion of the CAR (biotinylated ECD fusion protein … (biotinylated (capture form))); sulfo-tagged (detection form)).
T3 construct: also called FMC63-derived Fc-scFv fusion; not shown: human Fc
Kind of assay: bridge assay, biotinylated scFv-Fc on streptavidin plate, sulfo-tagged scFv-Fc detection, ECL (MSD). An excerpt: A bridge anti-therapeutic antibody (ATA) assay was developed to detect the presence or absence of antibodies, in serum of treated subjects, recognizing administered anti-CD19 CARs. Certain anti-ID antibodies described in Examples 1-3 were used as positive controls and to validate the ability of the assay to detect the presence of such antibodies.
A biotinylated human Fc-fusion protein (biotinylated ECD fusion protein) was used, containing an scFv portion of the CAR with variable regions derived from FMC63 (set forth in SEQ ID NO:34). The biotinylated ECD fusion protein was added to streptavidin-coated wells; the plates were incubated under conditions to allow binding of the fusion protein, and washed. To the biotinylated fusion protein-coated wells, various concentrations of anti-ID B-1 or anti-ID B-2 were added to the wells, and allowed to incubate under conditions to allow specific binding of the antibody. After washing, a sulfo-tagged version of the ECD fusion protein (sulfo-ECD fusion protein) containing the FMC63-derived Fc-scFv fusion. The wells were washed and an electrochemiluminescence (ECL) signal was read on a Meso Scale Discovery (MSD) Sector Imager.

Assay [5] has as its target T2, anti-CD19 (FMC63-derived) chimeric …. The assay is described as follows: inferred from a T cell proliferation assay with plate-bound antibody. As for the experimental part: For proliferation studies, engineered T cells were labeled with 50 nM carboxyfluorescein succinimidyl ester (CFSE) or CELL TRACE VIOLET (CTV) dye. Where relevant, expression of the surrogate EGFRt marker was detected by staining with an anti-EGFR antibody. Cells were seeded at a fixed number of cells per well in wells previously coated with 10, 5, 2.5, or 1.25 μg/ml of OKT3 (anti-CD3 antibody), or of anti-idiotype antibodies recognizing SJ25C1 and FMC63 (anti-ID A-land anti-ID B-1, respectively) in sodium carbonate/bicarbonate buffer (pH 9.0) overnight. Cells seeded in wells with no antibody coating were included as negative controls. The cells were cultured for 4 days and assessed for viability, proliferation, and expression of CD69 and CD25.
Proliferation of anti-CD19 (SJ25C1 or FMC63) CAR− expressing T cells was assessed by dye dilution using flow cytometry. The percent of CD3⁺/CFSE® w cells observed following stimulation of anti-CD19 (SJ25C1) CAR− expressing T cells with anti-ID A-1 is shown in FIG. 2A. The percent of CD3⁺/EGFR+/CFSE® W cells observed following stimulation of anti-CD19 (FMC63) CAR− expressing T cells with anti-ID B-1 is shown in FIG. 2B. […]

T1 sequence (P10747 other isoform, or with tags, fused parts or gaps mutant limits assumed): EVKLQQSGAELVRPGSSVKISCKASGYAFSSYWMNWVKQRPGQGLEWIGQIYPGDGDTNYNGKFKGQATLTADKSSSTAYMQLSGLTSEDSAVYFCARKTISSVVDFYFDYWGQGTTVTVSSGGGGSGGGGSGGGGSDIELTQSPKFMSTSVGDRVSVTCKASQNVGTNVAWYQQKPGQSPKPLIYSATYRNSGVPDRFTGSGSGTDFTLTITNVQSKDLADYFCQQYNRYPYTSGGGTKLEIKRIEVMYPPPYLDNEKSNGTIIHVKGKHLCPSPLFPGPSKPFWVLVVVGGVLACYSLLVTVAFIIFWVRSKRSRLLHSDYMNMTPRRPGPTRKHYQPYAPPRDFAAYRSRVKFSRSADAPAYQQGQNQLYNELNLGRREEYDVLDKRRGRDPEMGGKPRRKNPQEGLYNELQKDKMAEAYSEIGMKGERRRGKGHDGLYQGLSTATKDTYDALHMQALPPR
recombinant soluble extracellular domain (ECD) portion of the anti-CD19 (SJ25C1-derived) CAR (human), sequence (chain, as listed by the source): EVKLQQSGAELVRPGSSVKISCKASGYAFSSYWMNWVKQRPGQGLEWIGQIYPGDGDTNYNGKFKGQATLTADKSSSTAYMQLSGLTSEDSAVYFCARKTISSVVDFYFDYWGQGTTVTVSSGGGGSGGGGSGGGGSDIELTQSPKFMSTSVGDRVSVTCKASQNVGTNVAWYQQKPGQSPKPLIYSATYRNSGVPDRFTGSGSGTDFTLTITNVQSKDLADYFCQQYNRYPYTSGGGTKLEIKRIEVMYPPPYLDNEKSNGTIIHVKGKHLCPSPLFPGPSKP

B1: anti-idiotype antibody clone A-1 (anti-ID A-1) (antibody, mouse IgG1, kappa, V domains shown)
VH: QVQLQQPGSELVRPGGSVKLSCKASDYTFTSYWMHWVRQRPGQGLEWIGNIYPGSGGTNYDEKFKRKATLTVDTSSSTAYMQLRSLTSEDSAVYYCTREVTTVAYYYSMDYWGQGTSVTVSS
VL: DIQMTQTTSSLSASLGDRVTISCRASQDISNYLNWYQQKPDGTVKLLIYYTSRLHSGVPSRFSGSGSGTDYSLTISNLEQEDIATYFCQQGKTVPFTFGSGTKLEIKR
notes: Mouse hybridoma antibody; also called SJ25C1-derived scFv-specific anti-idiotype antibody; SJ25C1-specific anti-idiotype antibody
Regarding B1, the binding result in assay [1] is listed as “binds”.

B2: anti-idiotype antibody clone B-2 (anti-ID B-2) (antibody, mouse IgG1, kappa, V domains shown)
VH: QVQLQQPGAELVRPGASVKLSCKTSGYSFTRYWMNWVKQRPGQGLEWIGMIHPSDSETRLNQKFKDKATLTVDNSSSTAYMQLSSPTSEDSAVYYCASIYYEEAWGQGTLVTVSA
VL: DIQMTQSPASLSASVGETVTITCRASGNIHNYLAWYQQKQGKSPQLLVYNAKTLADSVPSRFSGSGSGTQYSLKINSLQPEDFGSYYCQHFWSTPYTFGGGTKLEIKR
notes: Mouse hybridoma antibody
As for B2, the binding result was “no binding” in assay [2], “binds” in assay [3] and “binds” in assay [4].

B3: anti-idiotype antibody clone B-1 (anti-ID B-1) (antibody, mouse IgG2a, kappa, V domains shown)
VH: EVQLQQSGPELVKPGASVKMSCKASGYTFTDYYMKWVKQCHGKSLEWIGDINPNNGGTDYNQNFKGKATLTVDKSSSTAYMQLNSLTSEDSAVYYCAREGNNYGSRDAMDYWGQGTSVTVSS
VL: QIVLTQSPALMSASPGEKVTMTCSASSGVIYMYWYQQKPRSSPKPWIYLTSNLASGVPARFSGSGSGTSYSLTISSMEAEDAATYYCQQWSSNPLTFGAGTKLELKR
notes: Mouse hybridoma antibody; also called FMC63-derived scFv-specific anti-idiotype antibody
With B3, the binding result in assay [2] is “no binding”; in assay [4], “binds”; in assay [5], “binds”.
